# Patent US20120165340
# Target: FLAG-HA-PTEN (UniProt P60484)
# Sequence (P60484 whole entry): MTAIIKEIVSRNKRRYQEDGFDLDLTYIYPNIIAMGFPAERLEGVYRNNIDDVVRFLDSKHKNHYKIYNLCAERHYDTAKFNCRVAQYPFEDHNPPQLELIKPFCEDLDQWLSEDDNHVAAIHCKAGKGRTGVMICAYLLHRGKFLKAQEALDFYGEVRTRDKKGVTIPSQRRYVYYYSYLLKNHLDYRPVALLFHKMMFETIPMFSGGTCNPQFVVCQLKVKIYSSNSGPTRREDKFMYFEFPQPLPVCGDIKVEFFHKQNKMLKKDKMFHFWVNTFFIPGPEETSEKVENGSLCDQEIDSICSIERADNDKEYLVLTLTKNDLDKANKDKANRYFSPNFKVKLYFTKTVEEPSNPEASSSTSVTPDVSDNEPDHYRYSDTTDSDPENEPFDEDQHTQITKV
substance,measurement,value
c-src,"tyrosine phosphorylation of PTEN (Western blot with 4G10 and anti-pY240, FIG. 15)","although src and lyn both phosphorylate PTEN on tyrosine, the phosphorylation of Y240 is much greater in the presence of lyn than when src is expressed with PTEN"
same,tyrosine phosphorylation sites on PTEN identified by mass spectrometry,"We identified four sites of tyrosine phosphorylation in the PTEN phosphatase domain (Y46, Y68, Y155 and Y174) and two sites in the PTEN C2 domain (Y240 and Y315)"
